B1: PLD5 (parent)
chain: KRTYWPDLDAKIREALVLRSVRVR

Variants of: B1
Test: protein stability index of a GFP-peptide fusion (GPS, HEK-293T) (PSI 1-6); higher = more stable
Settings: c terminus: a fixed tail appended
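Further: lentivirally expressed fusions sorted by FACS into six bins by GFP to DsRed ratio, PSI derived from sequencing read proportions per bin multiplied by bin number.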

Variant	protein stability index
KRTYWPDLDAKIVEALVLRSVRVR [R13V]	2.31
KRTYWPDLDAKIQEALVLRSVRVR [R13Q]	1.28
KRTYWPDLDAKIHEALVLRSVRVR [R13H]	2.6
KRTYWPDLDAKICEALVLRSVRVR [R13C]	2.29
KRTYWPDLDAKIAEALVLRSVRVR [R13A]	1.3
KRTYWPDLDAKISEALVLRSVRVR [R13S]	1.43
KRTYWPDLDAKIYEALVLRSVRVR [R13Y]	1.65
KRTYWPDLDAKIKEALVLRSVRVR [R13K]	1.9
KRTYWPDLDAKIPEALVLRSVRVR [R13P]	1.79
KRTYWPDLDAKIMEALVLRSVRVR [R13M]	1.54
KRTYWPDLDAKIGEALVLRSVRVR [R13G]	1.89
KRTYWPDLDAKINEALVLRSVRVR [R13N]	1.61
KRTYRPDLDAKIREALVLRSVRVR [W5R]	2.1
KRTYVPDLDAKIREALVLRSVRVR [W5V]	4.52
KRTYSPDLDAKIREALVLRSVRVR [W5S]	2.66
KRTYQPDLDAKIREALVLRSVRVR [W5Q]	2.15
KRTYTPDLDAKIREALVLRSVRVR [W5T]	1.58
KRTYWPDWDAKIREALVLRSVRVR [L8W]	1.85
KRTYWPDHDAKIREALVLRSVRVR [L8H]	2.47
KRTYWPDDDAKIREALVLRSVRVR [L8D]	2.83
KRTYWPDRDAKIREALVLRSVRVR [L8R]	3.06
KRTYWPDQDAKIREALVLRSVRVR [L8Q]	1.88
KRTYWPDFDAKIREALVLRSVRVR [L8F]	2
KRTYWPDTDAKIREALVLRSVRVR [L8T]	2.24

Variant	protein stability index
KRTYWPDYDAKIREALVLRSVRVR [L8Y]	3.05
KRTYWPDEDAKIREALVLRSVRVR [L8E]	2.94
KRTYWPDPDAKIREALVLRSVRVR [L8P]	1.82
KRTYWPDADAKIREALVLRSVRVR [L8A]	2.18
KRTYWPDMDAKIREALVLRSVRVR [L8M]	2.72
KRTYWPDNDAKIREALVLRSVRVR [L8N]	1.73
KRTYWPDLDAKLREALVLRSVRVR [I12L]	1.81
KRTYWPDLDAKDREALVLRSVRVR [I12D]	1.43
KRTYWPDLDAKFREALVLRSVRVR [I12F]	1.93
KRTYWPDLDAKVREALVLRSVRVR [I12V]	2.3
KRTYWPDLDAKQREALVLRSVRVR [I12Q]	2.54
KRTYWPDLDAKTREALVLRSVRVR [I12T]	2.7
KRTYWPDLDAKHREALVLRSVRVR [I12H]	2.19
KRTYWPDLDAKYREALVLRSVRVR [I12Y]	1.29
KRTYWPDLDAKRREALVLRSVRVR [I12R]	2.78
KRTYWPDLDAKKREALVLRSVRVR [I12K]	2.41
KRTYWPDLDAKAREALVLRSVRVR [I12A]	2.01
KRTYWPDLDAKMREALVLRSVRVR [I12M]	2.38
KRTYWPDLDAKEREALVLRSVRVR [I12E]	2.76
KRTYWPDLDAKCREALVLRSVRVR [I12C]	2.29
KRTYWPDLDARIREALVLRSVRVR [K11R]	1.47
KRTYWPDLDAYIREALVLRSVRVR [K11Y]	1.99
KRTYWPDLDAHIREALVLRSVRVR [K11H]	1.29
KRTYWPDLDATIREALVLRSVRVR [K11T]	2.42

Variant	protein stability index
KRTYWPDLDAMIREALVLRSVRVR [K11M]	1.04
KRTYWPDLDAEIREALVLRSVRVR [K11E]	2.17
KRTYWPDLDAPIREALVLRSVRVR [K11P]	2.14
KRTYWPDLDADIREALVLRSVRVR [K11D]	2.29
KRTYWPDLDAAIREALVLRSVRVR [K11A]	1.42
KRTYWPDLDYKIREALVLRSVRVR [A10Y]	2.61
KRTYWPDLDLKIREALVLRSVRVR [A10L]	2.05
KRTYWPDLDIKIREALVLRSVRVR [A10I]	2.54
KRTYWPDLDPKIREALVLRSVRVR [A10P]	2.36
KRTYWPDLDVKIREALVLRSVRVR [A10V]	1.93
KRTYWPDLDTKIREALVLRSVRVR [A10T]	2.33
KRTYWPDLDFKIREALVLRSVRVR [A10F]	1.52
KRTYWPDLDHKIREALVLRSVRVR [A10H]	3.11
KRTYWPDLNAKIREALVLRSVRVR [D9N]	1.59
KRTYWPDLEAKIREALVLRSVRVR [D9E]	2.54
KRTYWPDLGAKIREALVLRSVRVR [D9G]	2.88
KRTYWPDLHAKIREALVLRSVRVR [D9H]	2.57
KRTYWPVLDAKIREALVLRSVRVR [D7V]	1.23
KRTYWPMLDAKIREALVLRSVRVR [D7M]	2.84
KRTYWPTLDAKIREALVLRSVRVR [D7T]	2.39
KRTYWPCLDAKIREALVLRSVRVR [D7C]	1.61
KRTYWPLLDAKIREALVLRSVRVR [D7L]	1.82
KRTYWPALDAKIREALVLRSVRVR [D7A]	1.87
KRTYWPYLDAKIREALVLRSVRVR [D7Y]	1.37

Variant	protein stability index
KRTYWPFLDAKIREALVLRSVRVR [D7F]	1.58
KRTYWPELDAKIREALVLRSVRVR [D7E]	1.02
KRTYWPSLDAKIREALVLRSVRVR [D7S]	2.02
KRTYWPPLDAKIREALVLRSVRVR [D7P]	3.44
KRTYWPRLDAKIREALVLRSVRVR [D7R]	2.62
KRTYWPDLDAKIRGALVLRSVRVR [E14G]	2.75
KRTYWPDLDAKIRAALVLRSVRVR [E14A]	1.09
KRTYWPDLDAKIRCALVLRSVRVR [E14C]	1.46
KRTYWPDLDAKIRKALVLRSVRVR [E14K]	1.68
KRTYWPDLDAKIRHALVLRSVRVR [E14H]	1.27
KRTYWPDLDAKIRQALVLRSVRVR [E14Q]	1.88
KRTYWPDLDAKIRPALVLRSVRVR [E14P]	2.13
KRTYWHDLDAKIREALVLRSVRVR [P6H]	1.96
KRTYWQDLDAKIREALVLRSVRVR [P6Q]	3.34
KRTYWCDLDAKIREALVLRSVRVR [P6C]	1.06
KRTYWKDLDAKIREALVLRSVRVR [P6K]	1.25
KRTYWGDLDAKIREALVLRSVRVR [P6G]	1.82
KRTYWWDLDAKIREALVLRSVRVR [P6W]	3.99
KRTYWFDLDAKIREALVLRSVRVR [P6F]	2.23
KRTYWSDLDAKIREALVLRSVRVR [P6S]	1.67
KRTYWADLDAKIREALVLRSVRVR [P6A]	2.54
KRTYWDDLDAKIREALVLRSVRVR [P6D]	1.28

Source: the supplement of paper PMC10567573
